Assay results taken from patent US20170298146A1 (MODIQUEST B V, published 2017).
Non-standard residues stand in square brackets, D forms with d. No end group written: not given here. Cit = NC(=O)NCCC[C@H](N)C(=O)O

Legend:
[1] = molecular target: human recombinant histone H4 (human, UniProt P62805 2-103); assay: ELISA, 0.0032 ug/well
Protocol: (§1) Deiminated, as well as non-deiminated histones, were immobilized on 96-well ELISA plates (0.3 μg/well). CFC-1 and CFC-0 were coated at the same concentration and served as positive and negative controls, respectively, for specific anti-citrulline reactivity and as coating controls. Non-coated wells were used to test for aspecific binding of the antibodies. […] Detection of bound anti-citrulline antibodies was performed by incubating the wells with rabbit-anti-human-HRP (1:2000) for one hour at RT followed by incubation with TMB substrate. The resulting OD (y-axis) is a measure for antibody binding. H1=recombinant histone 1; H1/p2=huPAD2 recombinant histone 1; H1/p4=huPAD4 recombinant histone 1 and so forth (x-axis).

[2] = molecular target: T1, huPAD4 deiminated human recombinant histone H2B (human); assay: ELISA, 0.0032 ug/well
T1 construct: also called H2B/p4
Protocol: as §1

[3] = molecular target: T2, huPAD2 deiminated human recombinant histone H3 (human); assay: ELISA, 0.0032 ug/well
T2 construct: also called H3/p2
Protocol: as §1

[4] = molecular target: T3, huPAD4 deiminated human recombinant histone H3 (human); assay: ELISA, 0.0032 ug/well
T3 construct: also called H3/p4
Protocol: as §1

[5] = molecular target: T4, human recombinant histone H2B (human); assay: ELISA, 0.0032 ug/well
T4 construct: Non-deiminated
Protocol: as §1

[6] = molecular target: T5, huPAD4 deiminated human recombinant histone H2A (human); assay: ELISA, 0.0032 ug/well
T5 construct: also called H2A/p4; huPAD4 deiminated histone 2A
Protocol: as §1

[7] = molecular target: T6, huPAD2 deiminated human recombinant histone H2B (human); assay: ELISA, 0.0032 ug/well
T6 construct: also called H2B/p2
Protocol: as §1

[8] = molecular target: T7, Histone 2A citrulline-containing peptide 6 (human, also: biotin label); assay: peptide ELISA, 10 ug/well
T7 peptide: VHRLL[Cit]KGNYSE
Protocol: (§2) Biotin and citrulline-containing peptides derived from histone 2A were immobilized on NEUTRAVIDIN®-coated 96-well ELISA plates (0.3 μg/well). CFC-1 and CFC-0 were coated at the same concentration and served as positive and negative controls respectively for specific anti-citrulline reactivity and as coating controls. Non-coated wells were used to test for aspecific binding of the antibodies. […] Detection of bound anti-citrulline antibodies was performed by incubating the wells with rabbit-anti-human-HRP (1:2000) for one hour at RT followed by incubation with TMB substrate. The resulting OD (y-axis) is a measure for antibody binding.
(§3) Ninety-six-well ELISA plates were coated with NEUTRAVIDIN® (0.1 μg/well) by overnight incubation at 4° C. Wells were washed five times with PBS-TWEEN®-20 (PBS-T) and blocked by a one-hour incubation with PBS-T+1% Bovine serum albumin (BSA) at room temperature (RT). After five more washes with PBS-T, wells were incubated for one hour at RT with histone-derived citrulline and biotin-containing peptides (0.3 μg/well). […] Wells were washed five times with PBS-T and incubated with rabbit-anti-human-HRP (1:2000) for one hour at RT followed by five washes with PBS-T and three wash steps with PBS. Wells were incubated for five minutes with TMB substrate before stopping the reaction with 2 M H₂SO₄. Optical density was measured by 450 nm and is a measure for the affinity of the antibodies used.

CFC-1 [9] = molecular target: T8, CFC-1; assay: peptide ELISA, 10 ug/well
T8 construct: Positive control for anti-citrulline reactivity; also called cfc1 XG
Protocol: as §2, §3

[10] = molecular target: T9, Histone 2A citrulline-containing peptide 9 (human, also: biotin label); assay: peptide ELISA, 10 ug/well
T9 peptide: DNKKT[Cit]IIPRHL
Protocol: as §2, §3

[11] = molecular target: T10, Histone 2A citrulline-containing peptide 3 (human, also: biotin label); assay: peptide ELISA, 10 ug/well
T10 peptide: KSRSS[Cit]AGLQFP
Protocol: as §2, §3

[12] = molecular target: T11, Histone 2A citrulline-containing peptide 7 (human, also: biotin label); assay: peptide ELISA, 10 ug/well
T11 peptide: GNYSE[Cit]VGAGAP
Protocol: as §2, §3

[13] = molecular target: T12, Histone 2A citrulline-containing peptide 1 (human, also: biotin label); assay: peptide ELISA, 10 ug/well
T12 construct: also called AAASGXGKQGGK
T12 peptide: AAASG[Cit]GKQGGK
Protocol: as §2, §3

[14] = molecular target: T13, Histone 2A citrulline-containing peptide 12 (human, also: biotin label); assay: peptide ELISA, 10 ug/well
T13 peptide: NKLLG[Cit]VTIAQG
Protocol: as §2, §3

[15] = molecular target: T14, Histone 2A citrulline-containing peptide 2 (human, also: biotin label); assay: peptide ELISA, 10 ug/well
T14 peptide: AKAKS[Cit]SSRAGL
Protocol: as §2, §3

huFibα XG = molecular target: T15, huFibα XG (human, X at position 8 is citrulline; biotin label); assay: peptide ELISA, 0.0023 ug/well
T15 peptide: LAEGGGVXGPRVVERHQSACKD
Protocol: as §2, with “fibrinogen and vimentin” for “histone 2A”
(§4) Biotin-labeled and citrulline-containing fibrinogen and vimentin peptides (Table 5) were also tested for reactivity with the therapeutic antibodies. Peptides were coated on 96-well NEUTRAVIDIN®-ELISA plates.

msVim XS/XL = molecular target: T16, msVim XS/XL (mouse, also: biotin label); assay: peptide ELISA, 0.0023 ug/well
T16 construct: also called mouse vimentin peptide
T16 peptide: YVT[Cit]SSAV[Cit]L[Cit]SSVP
Protocol: as §2, with “fibrinogen and vimentin” for “histone 2A”
as §4

CFC-1 [16] = molecular target: T8, CFC-1; assay: peptide ELISA, 0.0023 ug/well
Protocol: as §2, with “fibrinogen and vimentin” for “histone 2A”
as §4

msFibα XH = molecular target: T17, msFibα XH (mouse, X at position 15 is citrulline; biotin label); assay: peptide ELISA, 0.0023 ug/well
T17 peptide: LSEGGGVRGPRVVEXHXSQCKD
Protocol: as §2, with “fibrinogen and vimentin” for “histone 2A”
as §4

msFibβ XG = molecular target: T18, msFibβ XG (mouse, also: biotin label); assay: peptide ELISA, 0.0023 ug/well
T18 peptide: EPTDSLDA[Cit]GHRPVDRR
Protocol: as §2, with “fibrinogen and vimentin” for “histone 2A”
as §4

msFibα XG = molecular target: T19, msFibα XG (mouse, X at position 8 is citrulline; biotin label); assay: peptide ELISA, 0.0023 ug/well
T19 peptide: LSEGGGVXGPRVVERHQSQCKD
Protocol: as §2, with “fibrinogen and vimentin” for “histone 2A”
as §4

huFibα XH = molecular target: T20, huFibα XH (human, X at position 15 is citrulline; biotin label); assay: peptide ELISA, 0.0023 ug/well
T20 peptide: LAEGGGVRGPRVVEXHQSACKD
Protocol: as §2, with “fibrinogen and vimentin” for “histone 2A”
as §4

B1: RhmAb2.102 (antibody, human IgG1, lambda)
heavy: not shown
light: QSVLTQPPSMSAAPGQKVTISCSGSSSNIGNNYVSWYQQVPGTAPKLLIYDDNKRPSGIPGRFSGSKSATSATLGITGLQAGDEADYYCGSWDDNLSVVLFGGGTKLTVLGQPKAAPSVTLFPPSSEELQANKATLVCLISDFYPGAVTVAWKADSSPVKAGVETTTPSKQSNNKYAASSYLSLTPEQWKSHRSYSCQVTHEGSTVEKTVAPTECS
notes: Human IgG1 lambda; also called Rhm2.102
- OD [1]: 0.06 OD
- OD [2]: 0.052 OD
- OD [3]: 0.08 OD
- OD [4]: 0.065 OD
- OD [5]: 0.05 OD
- OD [6]: 0.135 OD
- OD [7]: 0.052 OD
- OD [8]: 1.41 OD
- OD (CFC-1 [9]): 3.27 OD
- OD [10]: 0.09 OD
- OD [11]: 0.619 OD
- OD [12]: 0.08 OD
- OD [13]: 3.11 OD
- OD [14]: 0.083 OD
- OD [15]: 0.552 OD
- OD (huFibα XG): 0.125 OD
- OD (msVim XS/XL): 0.142 OD
- OD (CFC-1 [16]): 0.506 OD
- OD (msFibα XH): 0.085 OD
- OD (msFibβ XG): 0.12 OD
- OD (msFibα XG): 0.125 OD
- OD (huFibα XH): 0.123 OD
